Experimental data taken from article PMC8569185 (Frontiers in Pharmacology, 2021).

What was measured:
mouse KOR = mouse KOR (Mus musculus, UniProt P33534); assay: cell-based; conditions: HEK293, read-out: Efficacy cAMP Emax ± SD
mouse KOR-EGFP = mouse KOR-EGFP (mouse, UniProt P33534 1-380); assay: cell-based or functional assay
mouse κ-opioid receptor [1] = target: T1, mouse κ-opioid receptor (mouse, UniProt P33534 1-380); assay: cell-based or functional assay
mouse κ-opioid receptor [2] = target: T1, mouse κ-opioid receptor; assay: radioligand binding; displacement of [3H]-diprenorphine (1 nM) from HEK293 cell membranes stably expressing mouse KOR (6.3–7.6 µg/assay) by peptides (0.1 nM–30 µM); 50 mM Tris-HCl pH 7.4, 10 mM MgCl2, 0.1% BSA; 1.5 h at 37°C; filtration; Ki from IC50 by Cheng and Prusoff; conditions: one partner purified

Sequence of mouse KOR-EGFP (P33534 whole entry): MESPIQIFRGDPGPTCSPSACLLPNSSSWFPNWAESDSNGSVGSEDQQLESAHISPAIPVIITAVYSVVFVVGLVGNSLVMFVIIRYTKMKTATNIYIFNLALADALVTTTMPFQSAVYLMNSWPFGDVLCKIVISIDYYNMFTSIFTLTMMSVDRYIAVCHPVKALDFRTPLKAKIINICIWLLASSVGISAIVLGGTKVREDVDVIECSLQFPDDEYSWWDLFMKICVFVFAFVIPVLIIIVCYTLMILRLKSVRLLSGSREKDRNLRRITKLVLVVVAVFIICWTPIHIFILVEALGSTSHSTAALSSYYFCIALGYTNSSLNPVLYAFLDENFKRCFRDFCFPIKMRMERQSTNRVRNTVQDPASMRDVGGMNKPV
T1 sequence (P33534 whole entry): as above
Sequence of mouse KOR (P33534 whole entry): as above

| Molecule | Emax at 10 µM (mouse KOR) [%] | extent of β-arrestin-2-Nluc recruitment to KOR-EGFP (BRET) at 10 µM peptide, relative to 10 µM dyn A 1–13 (100%) (mouse KOR-EGFP) [% lower than dyn A 1–13] | EC50 of inhibition of forskolin-stimulated cAMP accumulation (HTRF cAMP-Gi kit), HEK293 cells stably expressing mouse KOR (mouse κ-opioid receptor [1]) [nM] | Emax of cAMP inhibition, normalised to 10 µM dyn A 1–13 (100%), HEK293 cells stably expressing mouse KOR (mouse κ-opioid receptor [1]) [%] | Ki (mouse κ-opioid receptor [2]) [nM] |
| --- | --- | --- | --- | --- | --- |
| H-YGGFMRRVGRPEW-OH [blenniorphin 1–13] | 98.5 ± 9.1 |  |  |  |  |
| H-YGGFMRRVGRPEWLVDS-OH [blenniorphin 1–17] | 97.5 ± 11 |  |  |  |  |
| CSCC[C@H](NC(=O)[C@H](Cc1ccccc1)NC(=O)CNC(=O)CNC(=O)[C@@H](N)Cc1ccc(O)cc1)C(=O)N[C@@H](CCCNC(=N)N)C(=O)N[C@@H](CCCNC(=N)N)C(=O)N[C@H](C(=O)O)C(C)C [blenniorphin 1–8] | 82.4 ± 9.8 |  |  |  |  |
| YGGFMRRVGRPEW (numbers count on: the dyn A 1–17-like peptide, not the precursor; Free N-terminus and free C-terminal carboxyl as printed (NH2-...-COOH); also called blenniorphin-13; source: synthetic peptide (Boc-based SPPS, RP-HPLC purified)) [blenniorphin 1–13] |  | ~30 | 5 | 98.5 | 116 |
| YGGFMRRVGRPEWLVDS (numbers count on: the dyn A 1–17-like peptide, not the precursor; Free N-terminus and free C-terminal carboxyl as printed (NH2-...-COOH); also called blenniorphin-17; source: synthetic peptide (Fmoc-based SPPS, RP-HPLC purified)) [blenniorphin 1–17] |  | ~30 | 15.2 | 97.5 | 85.8 |
| YGGFMRRV (numbers count on: the dyn A 1–17-like peptide, not the precursor; Free N-terminus and free C-terminal carboxyl as printed (NH2-...-COOH); source: synthetic peptide (Boc-based SPPS, RP-HPLC purified)) [blenniorphin 1–8] |  | ~30 | 3.6 | 82.4 | 3.3 |
